Assay results from the DeepSol protein solubility set.

test: soluble on expression in E. coli; label from the status in PepcDB or PDB records

| Sequence | soluble on expression in E. coli |
| --- | --- |
| SEAVLTEELDEEEQLLRRHRKEKKELQAKIQGMKNAVPKNDKKRRKQLTEDVAKLEKEMEQKHREELEQLKLTTKENKIDSVAVNISNLVLENQPPRISKAQKRREKKAALEKEREERIAEAEIENLTGARHMESEKLAQILAARQLEIKQIPSDGHCMYKAIEDQLKEKDCALTVVALRSQTAEYMQSHVEDFLPFLTNPNTGDMYTPEEFQKYCEDIVNTAAWGGQLELRALSHILQTPIEIIQADSPPIIVGEEYSKKPLILVYMRHAYGLGEHYNSVTRLVNIVTENCS | soluble |
| MECAEKVEAEIPGQAGRRAGKPSRTYYLEVYGCSLSEFDALIMASRLEEAGYRRVARPEDADVILVNTCAVRLDTEQRIAERLEKLRLQLPDRKYVVAGCLVKARPGLVARLVPEASLLAPQAVERVLDAVDALESGRRLVVLDGRRDTRSMPQLPITDAVVTVMIQEGCLGDCSFCITKVARRQVRSYSPRVIVERVREAVEKGAREIRLTGTDVAVYGVDLPGKPNLADLVAAILEKVEGDYRIRVGMMTPDQVEPYLDSLLDVYRDERVYKYFHLPVQSGDDEVLKIMKRNYTVSEYKAIHRRIKSRFPDAMIATDIIVGHPGETWEAFWNTVRLVEELRFEKVHLAQYSLRPHTEAASMEQVPDSVKKERSRILGKIVAEIGLEINGSYVGRRVRALVTERSWREGSMTGRLDNYTPIILPYEERAMGRWVYAEVEEATFFDLRSSKFEPAP | soluble |
| MMTDKLNLNVLDAAFYSLEQTVVQISDRNWFDMQPSIVQDTLIAGAIQKFEFVYELSLKMMKRQLQQDAINTDDIGAYGFKDILREALRFGLIGDMSKWVAYRDMRNITSHTYDQEKAMAVYAQIDDFLIESSFLLEQLRQRNQYD | soluble |
| SKIFDFVKPGVITGDDVQKVFQVAKENNFALPAVNCVGTDSINAVLETAAKVKAPVIVQFSNGGASFIAGKGVKSDVPQGAAILGAISGAHHVHQMAEHYGVPVILHTDHCAKKLLPWIDGLLDAGEKHFAATGKPLFSSHMIDLSEESLQENIEICSKYLERMSKIGMTLEIELGCTGGEEDGVDNSHMDASALYTQPEDVDYAYTELSKISPRFTIAASFGNVHGVYKAGNVVLTPTILRDSQEYVSKKHNLPHNSLNFVFHGGSGSTAQEIKDSVSYGVVKMNIDTDTQWATWEGVLNYYKANEAYLQGQLGNPKGEDQPNKKYYDPRVWLRAGQTSMIARLEKAFQELNAIDVL | soluble |
| MRVLVRDLKAHVGQEVELLGFLHWRRDLGRIQFLLLRDRSGVVQVVTGGLKLPLPESALRVRGLVVENAKAPGGLEVQAKEVEVLSPALEPTPVEIPKEEWRANPDTLLEYRYVTLRGEKARAPLKVQAALVRGFRRYLDRQDFTEIFTPKVVRAGAEGGSGLFGVDYFEKRAYLAQSPQLYKQIMVGVFERVYEVAPVWRMEEHHTSRHLNEYLSLDVEMGFIADEEDLMRLEEALLAEMLEEALNTAGDEIRLLGATWPSFPQDIPRLTHAEAKRILKEELGYPVGQDLSEEAERLLGEYAKERWGSDWLFVTRYPRSVRPFYTYPEEDGTTRSFDLLFRGLEITSGGQRIHRYEELLESLKAKGMDPEAFHGYLEVFKYGMPPHGGFAIGAERLTQKLLGLPNVRYARAFPRDRHRLTP | soluble |
| MIKQIGTVAVYVEDQQKAKQFWTEKVGFDIAADHPMGPEASWLEVAPKGAETRLVIYPKAMMKGSEQMKASIVFECEDIFGTYEKMKTNGVEFLGEPNQMEWGTFVQFKDEDGNVFLLKE | not soluble |
| MGSDKIHHHHHHMAETSIEWTDVTWNPVAGCTVLTAGCTNCYAMRMAARLEAMGVEKYAGLTRKSGGRAKWTGRIFLDRKALSIPASWSKPRRVFVNSMSDLFHSDVPTDFISDVWKVMAQTPRHTYQILTKRPDRMVEIVPGLAKLRNVWLGTSVEDARVIYRIDKLRQVPAAVRFVSFEPLIGSVSGAGLRNIHWAIVGGESGPKARSMDPAWVDEIESMCRDQGAAFFFKQWGGKNKKAAGRTLNGRLYDEMPAPSMP | not soluble |
| MGSDKIHHHHHHMPGGGNGILYSNLAAVKEMKMNNLRVVIITGLSGSGKSTALRALEDIGFYCVDNMPVVLLPQFLEIQSDKSKDISQVAMVMDLREKSFIETYKGIFEQIKARGYKIEIVFLYATDDALLHRFSETRRVHPLSSVSIMEGIRLEREQLRALEEMADKVIDTTSCNVHQLKDIVQRHFLPSSTARRLFIHLISFGYRYGLPADADLVLDVRFLPNPYWVESLKSFNGHHQDVRRYVLSAEASSIFLQKLFDLMEFLIPLYEKEGKPRITIAVGCTGGKHRSVVMANELWSYFSGRDYPVNVNHRDVGKS | not soluble |
